{
  "source": "patent US10272135B2",
  "about": "“Apolipoprotein O and fragments thereof for inducing apoptosis in a cancerous cell” (INSERM (INSTITUT NATIONAL DE LA SANTÉ ET DE LA RECHERCHE …, priority 2014, dated 2019)",
  "molecules": {"B1": {"name": "ApoO: 198-amino acid apolipoprotein, SEQ ID NO: 1; tested by overexpression from expression vectors or transgene (protein, listed as Homo sapiens)", "chain": "MFKVIQRSVGPASLSLLTFKVYAAPKKDSPPKNSVKVDELSLYSVPEGQSKYVEEARSQLEESISQLRHYCEPYTTWCQETYSQTKPKMQSLVQWGLDSYDYLQNAPPGFFPRLGVIGFAGLIGLLLARGSKIKKLVYPPGFMGLAASLYYPQQAIVFAQVSGERLYDWGLRGYIVIEDLWKENFQKPGNVKNSPGTK"}},
  "key": {"Bax": {"test_system": "Bax", "experiment": "Bax mRNA levels in cardiac myoblasts", "type": "cell-based", "settings": "ApoO cells vs control (FIG. 9f)", "excerpt": "After ethical committee approval, all patients in this study gave written consent for sample collection and molecular analysis prior to inclusion. Patients were carefully selected by physicians from the Department of Cardiology, Toulouse University Hospital, prior to coronary by-pass surgery. Bioinformatics. Microarray expression data from human heart samples were downloaded from the GEO repository (GSE1145). This series consisted of 107 myocardial samples collected from patients undergoing cardiac transplantation whose failure arises from different etiologies (e.g. idiopathic dilated cardiomyopathy, ischemic cardiomyopathy, valvular cardiomyopathy, and hypertrophic cardiomyopathy) and from “normal” organ donors whose hearts cannot be used for transplants. Arrays were intensity normalized and hierarchical clustering (average group linkage, Pearson correlation, threshold r=0.8) was applied to identify groups of co-expressed genes. […] All ApoO sequences within the expression vectors were verified by DNA double strand sequencing using ABI PRISM®BigDye™ Terminator version 3.1 Ready reaction cycle sequencing kit (Life Technologies SAS, Villebon sur Yvette) and loaded on an ABI 3130XL DNA sequencing instrument (Life Technologies SAS, Villebon sur Yvette). […]"}, "U87 cells": {"test_system": "U87 cells", "experiment": "Caspase-3 activity in U87 glioblastoma transfectants", "type": "cell-based, human", "settings": "U87 pTT-ApoO vs control pTT, 100 μM palmitate overnight (FIG. 13)", "experimental": "U87 were obtained from the European Collection of Cell Cultures (Salisbury, England). p y, g) U87 cells were cultured in Dulbecco's modified Eagle medium (Life Technologies SAS, Villebon sur Yvette) adjusted to contain 1.5 g/liter sodium bicarbonate and supplemented with antibiotic-antimycotic solution (Life Technologies SAS, Villebon sur Yvette) and 10% fetal bovine serum (FBS, AbCys s.a., Paris). Cells were plated on 10-cm diameter tissue culture dish and grown in a 5% CO2 incubator at 37° C. with saturating humidity with medium changes every 2 days. U87 glioblastomas were stably transfected by electroporation and pools of transfectants were selected as previously described (Smih et al 2002). Western Blot Analysis Cultured cells were resuspended in RIPA buffer (0.15 M sodium chloride, 1% NP-40, 0.5% sodium deoxycholate, 0.1% SDS, 50 mM Tris, pH 8) in the presence of a mix protease inhibitors. The lysate was sonicated 6 s and centrifuged at 6,500 g for 10 min. […] Protein immune-band densitometry was quantified with the ImageJ software. […] Caspase-3 activities were measured using the Caspase-3 Substrate IV Fluorogenic substate (VWR, Strasbourg) and a Victor™ X5 2030 multilabel reader (Perkin Elmer, Courtaboeuf). […]\nThe inventors measured and compared the Caspase-3 activity in • control U87 cells (pTT); and • U87 transfectants cells overexpressing ApoO (pTT-ApoO)."}, "glioblastoma cells": {"test_system": "glioblastoma cells", "experiment": "Transmission electron microscopy of glioblastoma cells", "type": "cell-based", "experimental": "Transmission electron microscopy of control (left) and ApoO expressing (right) cells incubated overnight with 100 μM of palmitate (n=6). Black arrows indicate lipid droplets.\nTransmission electron microscopy of control (left) and ApoO expressing (right) cells. Black arrows indicate blebs (n=3)."}},
  "data": [
    {"molecule": "B1", "values": [
      {"measurement": "expression of Bax", "setting": "Bax", "result": "increase"},
      {"measurement": "Caspase-3 activity", "setting": "U87 cells", "result": "significant increase"},
      {"measurement": "apoptosis (membrane blebbing)", "setting": "glioblastoma cells; cells which express ApoO vs cells which do not (FIG. 16)", "result": "apoptosis occurs"},
      {"measurement": "mitochondrial morphology", "setting": "glioblastoma cells; expression or overexpression of ApoO in glioblastoma cells", "result": "development of abnormal mitochondria"},
      {"measurement": "lipid accumulation", "setting": "glioblastoma cells; glioblastoma cells expressing ApoO, in the presence of palmitate (FIG. 15)", "result": "lipid accumulate"}
    ]}
  ]
}
